From patent CN114044821A (INST MILITARY MEDICINE ACADEMY MILITARY SCIENCES PLA, dated 2022)

Biological target: 新冠病毒野生型刺突蛋白(S蛋白)，在假病毒/真病毒表面 (SARS-CoV-2, UniProt P0DTC2 14-1273)
Experiment: cell-based or functional assay

B1: 抗SARS-CoV-2全人源单克隆抗体ZWC12 (antibody, V domains shown)
VH: EVQLVESGGALVQPGGSLRLSCAASGFTFANYAMSWVRQAPGKGLEWVSSMTGSSIDSYYADSVKGRFTISRDNSRNTLYLQMNSLRAEDTAVYYCAKGELLWFGDLLHNWFDPWGRGTLVTVSS
VL: DIVMTQSPATLSVSPGERATLSCRASQSVSTNLAWYQQKPGQAPRLLIHGASTRATGLPARFSGSGSGTEFTLTISSLQSEDFAVYFCQQYDSWPGTFGPGTKVDIKR
With B1 the “假病毒中和 EC50 (luciferase, HEK293T)” value was 1.04 µg/mL and the “真病毒中和 EC50 (Vero E6, crystal violet)” value was 25 µg/mL.
